According to the supplement of paper PMC10126150:
± gives the standard deviation of the averaged measurements.

System: ATP
Test: switch fluorescence ratio, 500 uM ATP over buffer (Cy3 cluster intensity, sum of 5 cycles each) (fold (ratio)); higher = stronger signal-on switching upon ATP binding; sequences stand for … in TCGTCGGCAGCGTCAGATGTGTATAAGAGACAGTTTTTTTTTTTTTTTTTTTTTTTTT…TC
Conditions: aptamer strand: ATP DNA aptamer (quencher-CACCTGGGGGAGTATTGCGGAGGAAGG + anchor), 100 nM annealed; ATP concentration: 500 uM
Procedure, shortened: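 Per cluster, summed Cy3 intensity from the target cycles was divided by that from the buffer cycles to give the fluorescence ratio, then averaged per switch-domain sequence. Clusters outside 100-1000 RFU were excluded. The Cy3-labelled switching-strand clusters, on a modified Illumina MiSeq flow-cell, were annealed to 100 nM quencher-labelled ATP aptamer and imaged in selection buffer, then after 15 min with 500 uM ATP at 22 °C, for five cycles with NaOH stripping and re-annealing between them.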
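Also: ATP exposure 15 min at 22 °C before imaging.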

Row | Sequence | switch fluorescence ratio
1 | CCGGGGATCA | 1.01 ± 0.024
2 | CCGGGGGACG | 1.06 ± 0.14
3 | CCGGGGGGAT | 1.55 ± 0.66
4 | CCGGGGGGTA | 1.37 ± 0.017
5 | CCGGGGGT | 1.036 ± 0.0046
6 | CCGGGGGTCC | 1.02 ± 0.019
7 | CCGGGGGTCG | 1.06 ± 0.074
8 | CCGGGGGTTA | 1.14 ± 0.23
9 | CCGGGGTGGC | 1.16 ± 0.11
10 | CCGGGGTTGA | 0.993 ± 0.074
11 | CCGGGGTTTG | 0.998 ± 0.019
12 | CCGGGTAAGG | 0.9989 ± 0.0045
13 | CCGGGTAGTT | 1.02 ± 0.074
14 | CCGGGTGACA | 1.25 ± 0.048
15 | CCGGGTTACT | 1.91 ± 0.044
16 | CCGGGTTGCA | 1.03 ± 0.04
17 | CCGGGTTTAG | 1.03 ± 0.023
18 | CCGGGTTTGT | 1.05 ± 0.03
19 | CCGGTACGTC | 1.12 ± 0.044
20 | CCGGTACTAT | 1.167 ± 0.0092
21 | CCGGTATAAT | 1.144 ± 0.0026
22 | CCGGTATATC | 2.517 ± 0.025
23 | CCGGTTAAAC | 1.64 ± 0.06
24 | CCGGTTAGAG | 1.05 ± 0.014
25 | CCGGTTGGTG | 1 ± 0.036

Row | Sequence | switch fluorescence ratio
26 | CCGGTTTTCG | 1.09 ± 0.036
27 | CCGGTTTTGC | 1.21 ± 0.14
28 | CCGTAGAGGG | 1.38 ± 0.043
29 | CCGTAGGAAT | 1.28 ± 0.068
30 | CCGTAGGTTT | 1.06 ± 0.037
31 | CCGTCAAGGA | 1.94 ± 1.2
32 | CCGTCGGCGC | 1.08 ± 0.019
33 | CCGTCGTACG | 1.06 ± 0.11
34 | CCGTCTGGCG | 0.9959 ± 0.0067
35 | CCGTGACAAT | 4.12 ± 0.34
36 | CCGTGAGGTA | 1 ± 0.026
37 | CCGTGCGTAT | 1.3 ± 0.062
38 | CCGTGGGGGG | 1.02 ± 0.083
39 | CCGTTCTGGG | 0.9786 ± 0.0026
40 | CCGTTGAATT | 1.008 ± 0.0056
41 | CCGTTGACCG | 1.07 ± 0.057
42 | CCGTTGGACT | 1.24 ± 0.067
43 | CCGTTGGGCT | 1.01 ± 0.025
44 | CCGTTGGGGC | 1.12 ± 0.059
45 | CCGTTGTATT | 1.12 ± 0.035
46 | CCGTTTATGA | 1.1 ± 0.047
47 | CCGTTTGAAA | 1.01 ± 0.006
48 | CCGTTTTGAA | 0.981 ± 0.057
49 | CCGTTTTTGC | 1.14 ± 0.09
50 | CCTAAAAGGG | 1 ± 0.032

Row | Sequence | switch fluorescence ratio
51 | CCTAACCGTC | 1.156 ± 0.0056
52 | CCTAACGCAG | 2.32 ± 0.43
53 | CCTAATTTTA | 0.971 ± 0.043
54 | CCTACGGAAG | 2.07 ± 0.045
55 | CCTAGCAAGT | 3.19 ± 0.92
56 | CCTAGCCTGC | 1.16 ± 0.054
57 | CCTAGCGGTT | 1.1459 ± 0.00038
58 | CCTAGGGAGC | 1.07 ± 0.1
59 | CCTAGGGGGC | 1.24 ± 0.29
60 | CCTAGGGGGG | 1.17 ± 0.23
61 | CCTAGTCGGC | 1.0715 ± 0.00095
62 | CCTAGTGTTC | 0.9801 ± 0.0083
63 | CCTAGTTCGG | 0.997 ± 0.027
64 | CCTATAGAGT | 0.964 ± 0.02
65 | CCTATATTAA | 0.9853 ± 0.0066
66 | CCTATGGTTG | 0.997 ± 0.033
67 | CCTATTACTT | 1 ± 0.034
68 | CCTATTATTT | 1 ± 0.051
69 | CCTCATTGAC | 2.24 ± 0.15
70 | CCTCGAGGGT | 1.09 ± 0.07
71 | CCTCGATTCA | 1.03 ± 0.017
72 | CCTCTACTGG | 1.12 ± 0.042
73 | CCTCTGGGGA | 1.82 ± 0.94
74 | CCTGAAAGGT | 1.003 ± 0.0079
75 | CCTGACAGCG | 1.012 ± 0.0083

Row | Sequence | switch fluorescence ratio
76 | CCTGAGAGAG | 1.034 ± 0.0052
77 | CCTGAGGAGG | 0.997 ± 0.014
78 | CCTGATCGAT | 1.01 ± 0.02
79 | CCTGATGGGG | 1.01 ± 0.017
80 | CCTGATTGAA | 0.991 ± 0.0088
81 | CCTGCATTTT | 1.3 ± 0.33
82 | CCTGCCAAGA | 2 ± 1.4
83 | CCTGCGGGG | 1.11 ± 0.022
84 | CCTGCGTAAG | 2.29 ± 0.11
85 | CCTGCTAAGT | 1 ± 0.058
86 | CCTGGAAATT | 1.02 ± 0.023
87 | CCTGGATATT | 0.997 ± 0.013
88 | CCTGGGCCCA | 1.09 ± 0.15
89 | CCTGGGTGGG | 1.12 ± 0.065
90 | CCTGGGTTTC | 1.008 ± 0.0052
91 | CCTGGGTTTT | 1.06 ± 0.05
92 | CCTGGTAAGT | 1.04 ± 0.051
93 | CCTGGTGGGA | 0.999 ± 0.014
94 | CCTGTCATGT | 1.02 ± 0.013
95 | CCTGTGAGGT | 1.01 ± 0.045
96 | CCTGTGTTCG | 1 ± 0.025
97 | CCTGTTAGCT | 1.15 ± 0.076
98 | CCTGTTTTAT | 0.9953 ± 0.0051
99 | CCTGTTTTCG | 1.06 ± 0.05
100 | CCTGTTTTTA | 0.986 ± 0.024

Row | Sequence | switch fluorescence ratio
101 | CCTTACAGCT | 1.2 ± 0.044
102 | CCTTAGGGGC | 1.03 ± 0.026
103 | CCTTATAAA | 1 ± 0.018
104 | CCTTATTAGT | 0.984 ± 0.012
105 | CCTTATTGGG | 1.05 ± 0.037
106 | CCTTCTTGGG | 1.015 ± 0.0033
107 | CCTTGCCGTT | 0.99 ± 0.017
108 | CCTTGGGTAT | 1.01 ± 0.034
109 | CCTTGGGTTG | 1.03 ± 0.032
110 | CCTTTAAAAT | 1.4 ± 0.41
111 | CCTTTGAGAT | 1.03 ± 0.022
112 | CCTTTGGGGT | 1.69 ± 1.2
113 | CCTTTGTTTT | 1.05 ± 0.091
114 | CCTTTTAGGT | 0.9846 ± 0.0043
115 | CCTTTTCGAG | 1.037 ± 0.0025
116 | CCTTTTCGCG | 1.106 ± 0.0051
117 | CCTTTTGGAT | 1.07 ± 0.073
118 | CCTTTTGGCT | 0.964 ± 0.014
119 | CGAAAAGAGG | 1.1 ± 0.26
120 | CGAAAAGGGA | 1.01 ± 0.029
121 | CGAAAATGCC | 1.02 ± 0.023
122 | CGAAAATTCA | 1.02 ± 0.0077
123 | CGAAAATTCG | 1.03 ± 0.048
124 | CGAAACCGAC | 2.17 ± 1.2
125 | CGAAAGGCTA | 1.15 ± 0.18

Row | Sequence | switch fluorescence ratio
126 | CGAAAGGGGA | 1.03 ± 0.018
127 | CGAAATATCT | 1.04 ± 0.058
128 | CGAAATTGTG | 1.02 ± 0.022
129 | CGAACTGAAG | 0.975 ± 0.026
130 | CGAACTTGTT | 1.01 ± 0.04
131 | CGAAGACTGC | 1.19 ± 0.12
132 | CGAAGAGGAG | 0.981 ± 0.011
133 | CGAAGCATTT | 3.73 ± 0.14
134 | CGAAGGGCG | 1.03 ± 0.029
135 | CGAAGTACCG | 1.08 ± 0.011
136 | CGAAGTGGGG | 1.01 ± 0.026
137 | CGAAGTGGTC | 0.995 ± 0.059
138 | CGAAGTGTTT | 1 ± 0.02
139 | CGAAGTTTGC | 1.23 ± 0.33
140 | CGAATAGCTT | 1.01 ± 0.062
141 | CGAATGCGTT | 0.973 ± 0.021
142 | CGAATGGGGT | 0.985 ± 0.039
143 | CGAATGGTAA | 1.05 ± 0.051
144 | CGAATTAGTT | 0.978 ± 0.045
145 | CGAATTTAAG | 1.009 ± 0.0062
146 | CGAATTTTAT | 0.976 ± 0.039
147 | CGAATTTTTT | 0.9539 ± 0.0064
148 | CGACACCGTT | 1.03 ± 0.056
149 | CGACACTATT | 1.06 ± 0.034
150 | CGACAGGTTC | 1.0621 ± 0.00069

Row | Sequence | switch fluorescence ratio
151 | CGACCATAGA | 1.07 ± 0.045
152 | CGACCATAGC | 1.84 ± 0.19
153 | CGACCGGGGA | 1.04 ± 0.011
154 | CGACCGTAAA | 1.5 ± 0.14
155 | CGACCTTGCT | 1.55 ± 0.26
156 | CGACGACTGG | 1.01 ± 0.017
157 | CGACGGGGGG | 1 ± 0.017
158 | CGACGGTTGG | 0.967 ± 0.013
159 | CGACTATTTT | 1.01 ± 0.045
160 | CGACTTGGTA | 0.9766 ± 0.0011
161 | CGAGAATGTT | 1.07 ± 0.1
162 | CGAGAGGAAA | 0.9804 ± 0.0046
163 | CGAGAGGAGC | 0.998 ± 0.073
164 | CGAGAGGGAG | 1.004 ± 0.0015
165 | CGAGAGGGGT | 1.02 ± 0.044
166 | CGAGAGTGCG | 0.962 ± 0.023
167 | CGAGAGTTTT | 0.985 ± 0.032
168 | CGAGCGATGG | 1.94 ± 0.074
169 | CGAGGAGGGG | 0.995 ± 0.02
170 | CGAGGCAGGT | 1.51 ± 0.093
171 | CGAGGCATTA | 4.8 ± 1.4
172 | CGAGGGACGG | 0.992 ± 0.024
173 | CGAGGGATTC | 1.12 ± 0.048
174 | CGAGGGGAAG | 0.992 ± 0.022
175 | CGAGGGGGAG | 1.004 ± 0.0097

Row | Sequence | switch fluorescence ratio
176 | CGAGGGTATG | 1.01 ± 0.027
177 | CGAGGGTGGC | 0.96 ± 0.11
178 | CGAGGGTTAT | 1.005 ± 0.0054
179 | CGAGGTACGT | 0.9867 ± 0.0046
180 | CGAGGTGTGT | 1.009 ± 0.0022
181 | CGAGTCAGTG | 0.979 ± 0.065
182 | CGAGTGTCGG | 0.984 ± 0.02
183 | CGAGTTCCTT | 1.02 ± 0.014
184 | CGAGTTGGAC | 1.0038 ± 0.00091
185 | CGATAAACGG | 1.03 ± 0.022
186 | CGATAAGGGG | 1.02 ± 0.018
187 | CGATACCTTT | 1.003 ± 0.0086
188 | CGATAGAAAG | 1.01 ± 0.024
189 | CGATAGGCGT | 0.9927 ± 0.0032
190 | CGATAGGTAG | 0.994 ± 0.018
191 | CGATAGGTGG | 0.975 ± 0.094
192 | CGATATAAGA | 0.998 ± 0.054
193 | CGATATACTG | 1.09 ± 0.074
194 | CGATATAGGC | 0.959 ± 0.018
195 | CGATATCGC | 1.03 ± 0.014
196 | CGATATGTTT | 1.01 ± 0.079
197 | CGATATTGGT | 1 ± 0.017
198 | CGATCAAAAC | 1.26 ± 0.31
199 | CGATCATAGG | 1.01 ± 0.049
200 | CGATCATGGT | 0.994 ± 0.011
